CN115703833A (BOAOXIN BIOTECHNOLOGY NANJING CO LTD, dated 2023)

How the values were obtained:
[1] = biological target: T1, 人CD47 (表面过表达人CD47的293F细胞) (human, UniProt Q08722 19-323); experiment: flow cytometry on 293F cells overexpressing human CD47
T1 construct: whole, on cells; also called 表面过表达人CD47的稳定细胞系293F

[2] = biological target: T2, 重组人CD47-his蛋白 (ACRO biosystems, cat#CD7-H5227, MW 15.6 kDa) (human, UniProt Q08722 19-139, biotin-labelled in the ELISAs (position not given); unlabelled in Biacore); experiment: Biacore T200 SPR; antibody captured by goat anti-mouse IgG on a CM5 chip, CD47-his as analyte
T2 construct: also called 人CD47蛋白; 人CD47-生物素; not shown: his tag
T2 sequence (Q08722 19-139 limits assumed): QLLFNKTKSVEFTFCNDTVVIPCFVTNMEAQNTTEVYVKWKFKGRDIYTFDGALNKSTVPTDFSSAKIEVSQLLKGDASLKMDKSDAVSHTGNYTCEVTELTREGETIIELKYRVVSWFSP

T1 sequence (Q08722 19-323): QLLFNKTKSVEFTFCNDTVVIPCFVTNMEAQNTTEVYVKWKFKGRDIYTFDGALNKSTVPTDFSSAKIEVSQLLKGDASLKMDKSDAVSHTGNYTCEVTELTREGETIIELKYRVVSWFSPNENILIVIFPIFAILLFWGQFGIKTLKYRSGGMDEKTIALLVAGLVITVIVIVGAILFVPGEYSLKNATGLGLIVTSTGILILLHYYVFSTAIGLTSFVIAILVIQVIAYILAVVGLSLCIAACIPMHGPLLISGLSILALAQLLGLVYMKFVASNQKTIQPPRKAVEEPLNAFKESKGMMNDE

binding result [1]: binds | binding result [2]: binds
B1: 本发明的单克隆抗体1D5 (小鼠抗CD47单克隆抗体) (antibody, V domains shown)
VH: EVQLQQSGAELVRSGASVKLSCTASGFNIKDYYMSWVRQRPEQGLEWIGWIDPKNGDTAYDPKFQGKATMTADTSSNTAYLQFSSLTSEDTADYYCNAGGRGGFAYWGQGTLVTVSA
VL: DVLMTQTPLSLPVSLGDQASISCRSNQSIVHSNGYTYLEWYLQKPGQSPKLLIYKVSNRFSGVPDRFSGSGSGTDFTLRISRVEAEDLGVYYCFQGSHVPRTFGGGTKLEIK
notes: Tested as a purified mouse monoclonal antibody from a hybridoma
